Laboratory results taken from patent publication US20170306033A1 (Amgen, published 2017).
Substitutions are numbered along the chain they refer to.

T1: human PAC1 receptor (human, UniProt P41586 21-468)
T1 sequence: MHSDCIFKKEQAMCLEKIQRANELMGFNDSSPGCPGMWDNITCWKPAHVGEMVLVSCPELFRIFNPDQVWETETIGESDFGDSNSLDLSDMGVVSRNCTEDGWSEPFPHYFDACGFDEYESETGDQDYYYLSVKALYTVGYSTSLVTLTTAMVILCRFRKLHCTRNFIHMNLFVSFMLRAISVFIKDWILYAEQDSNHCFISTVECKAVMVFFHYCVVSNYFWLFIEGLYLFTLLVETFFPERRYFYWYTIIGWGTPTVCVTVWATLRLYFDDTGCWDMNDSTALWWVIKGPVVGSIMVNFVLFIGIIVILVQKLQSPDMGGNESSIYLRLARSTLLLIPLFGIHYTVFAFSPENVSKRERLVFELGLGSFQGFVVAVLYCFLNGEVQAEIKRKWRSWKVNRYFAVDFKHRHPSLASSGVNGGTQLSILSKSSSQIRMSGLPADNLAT

B1: iPS:327742 (bispecific antibody, human IgG1, kappa, lambda, N297G)
light 1: EIVLTQSPATLSLSPGERATLSCRASQSVGRSLHWYQQKPGQAPRLLIKYASQSLSGIPARFSGSGSGTDFTLTISSLEPEDFAVYYCHQSSRLPFTFGPGTKVDIKRTVAAPSVFIFPPSDEQLKSGTASVVCLLNNFYPREAKVQWKVDNALQSGNSQESVTEQDSKDSTYSLESTLTLSKADYEKHKVYACEVTHQGLSSPVTKSFNRGEC
heavy 1: not shown
light 2: QSVLTQPPSVSAAPGQKVTISCSGSSSNIGNNYVSWYQQLPGTAPKLLIYDNNKRPSGIPDRFSGSKSGTSATLGITGLQTGDEADYYCGTWDSRLSAVVFGGGTKLTVLGQPKANPTVTLFPPSSEELQANKATLVCLISDFYPGAVTVAWKADGSPVKAGVETTKPSKQSNNKYAAKSYLSLTPEQWKSHRSYSCQVTHEGSTVEKTVAPTECS
heavy 2: QVQLVESGGGVVQPGRSLRLSCAASGFTFSSFGMHWVRQAPGKGLEWVAVISFDGSIKYSVDSVKGRFTISRDNSKNTLFLQMNSLRAEDTAVYYCARDRLNYYESSGYYHYKYYGMAVWGQGTTVTVSSASTKGPSVFPLAPSSKSTSGGTAALGCLVKDYFPEPVTVSWNSGALTSGVHTFPAVLQSSGLYSLESVVTVPSSSLGTQTYICNVNHKPSNTKVDKKVEPKSCDKTHTCPPCPAPELLGGPSVFLFPPKPKDTLMISRTPEVTCVVVDVSHEDPEVKFNWYVDGVEVHNAKTKPCEEQYGSTYRCVSVLTVLHQDWLNGKEYKCKVSNKALPAPIEKTISKAKGQPREPQVYTLPPSRKKMTKNQVSLTCLVKGFYPSDIAVEWESNGQPENNYKTTPPVLKSDGSFFLYSKLTVDKSRWQQGNVFSCSVMHEALHNHYTQKSLSLSPGK
B2: iPS:327878 (bispecific antibody, human IgG1, kappa, lambda, N297G)
light 1: DIQMTQSPSSLSASVGDRITITCRASQSISRYLNWYQQKPGKAPKLLIYAASSLQSGIPSRFSGSGSGTDFTLTINSLQPEDFATYFCQQSYSPPFTFGQGTKVDIKRTVAAPSVFIFPPSDEQLKSGTASVVCLLNNFYPREAKVQWKVDNALQSGNSQESVTEQDSKDSTYSLESTLTLSKADYEKHKVYACEVTHQGLSSPVTKSFNRGEC
heavy 1: not shown
light 2: B1 light 2 with A72T
heavy 2: B1 heavy 2 with K370E
B3: iPS:327879 (bispecific antibody, human IgG1, kappa, lambda, N297G)
light 1: not shown
heavy 1: not shown
light 2: B1 light 2 with A72T
heavy 2: B1 heavy 2 with K370E
B4: iPS:327872 (bispecific antibody, human IgG1, kappa, N297G)
light 1: B2 light 1
heavy 1: not shown
light 2: EIVLTQSPGTLSLSPGERATLSCRASQSVSSGYLTWYQQKPGQAPRLLIYGASSRATGIPDRFSGSGSGTDFTLTISRLEPEDFAVYYCQQYGNSLSRFGQGTKLEIKRTVAAPSVFIFPPSDEQLKSGTASVVCLLNNFYPREAKVQWKVDNALQSGNSQESVTEQDSKDSTYSLKSTLTLSKADYEKHKVYACEVTHQGLSSPVTKSFNRGEC
heavy 2: not shown

The binders below were run against human CGRP receptor (human, UniProt Q16602 23-461; O60894 27-148) (assay: cell-based or functional assay).
human CGRP receptor, sequence (Q16602 23-461 limits assumed, chain 1 of 2): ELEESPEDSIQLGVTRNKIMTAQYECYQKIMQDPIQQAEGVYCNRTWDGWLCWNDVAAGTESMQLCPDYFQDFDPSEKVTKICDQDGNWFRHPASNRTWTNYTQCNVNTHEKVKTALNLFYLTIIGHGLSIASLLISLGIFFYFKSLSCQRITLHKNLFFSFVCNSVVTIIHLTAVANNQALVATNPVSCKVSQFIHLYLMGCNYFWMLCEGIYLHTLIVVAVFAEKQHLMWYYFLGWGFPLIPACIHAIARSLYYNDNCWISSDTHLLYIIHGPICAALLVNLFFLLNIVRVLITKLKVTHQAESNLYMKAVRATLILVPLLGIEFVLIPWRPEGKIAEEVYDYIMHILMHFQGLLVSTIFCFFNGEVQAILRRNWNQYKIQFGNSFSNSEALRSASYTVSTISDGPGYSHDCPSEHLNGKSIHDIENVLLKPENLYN
human CGRP receptor, sequence (O60894 27-148 limits assumed, chain 2 of 2): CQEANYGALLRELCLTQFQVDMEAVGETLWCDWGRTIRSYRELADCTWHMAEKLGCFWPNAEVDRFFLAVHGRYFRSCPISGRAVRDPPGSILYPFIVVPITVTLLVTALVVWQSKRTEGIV

| Binder | % inhibition of human CGRPR |
| --- | --- |
| B1 | 84% |
| B2 | 75% |
| B3 | 81% |
| B4 | 80% |

What follows are binders tested against T1, human PAC1 receptor (assay: cell-based or functional assay).

| Binder | % inhibition of human PAC1 |
| --- | --- |
| B1 | 96% |
| B2 | 42% |
| B3 | 19% |
| B4 | 40% |
